The values that follow come from patent publication US20240026407A1, “MODIFICATION OF SAPONINS” (GLAXOSMITHKLINE BIOLOGICALS SA, priority 2020, published 2024).

Bounds are passed on as bounds.

B1: 885 (protein, listed as Bifidobacterium indicum)
chain: MTTDKHLQAKDLDIEKEASLTSGSDAWHLQGVPDQGYPEYMITDGPYGLRKATGSDVYGSVPATCFPPTAGLASSWNPDLTYQVGQAMGEECIQEEVAVILGPGINIKRSPLGGRNFEYYSEDPVLAGHQAAGLVDGVQSKGVGTSLKHFAANNQETDRLRVSSDIDERTLREIYLPAFEYVVKHAKPWTIMCAYNKLNGVYGSENRWLLTDVLRGEWGYQGLVMSDWGAVHDRAAALRAGLNLEMPPSASDHEVVEAVRAGNLDKDQLDRMAQGVLDLIEKAKPAMSQKGYRYDVEAHDQVARQAAQESIVMLKNEDGVLPLAPGEKVALIGEFARTPRYQGGGSSHITPTKVTTALDSFKETGMDVDFVPGFTLDEAPQDQSLTDQAVKAAADADKVVLFLGLPEDAESEGFDRTDIDLPTKQLDLLRAVSQVNDQVVVVLSNGSVVSVVDWLPQAKAVLESWLLGQAGGQAVVDILTGGANPSGRLPETIPVRLEDNPSITSFPGEEGHSRYGEGIYVGYRYYDTFNKPVAFPFGFGLSYSTFEISNVRVEKTGPNAVRVDLTVTNTSGIDGAETVQVYVAPCASKVGRPSHELKSFAKVFLKAGESQEISLDLDERDFAYWSTAMNEWHVEAGTYGIEVGTSSRDLVSKLDVDLDGDGLFVRLNSNSTMEEWREDQVGGPIMKSHVEGGKVPLPNDPNTAKLFDSMPLASVITLSGGDGNSVVADMITDYQKAIEQQGLTGASRGSE
B2: 828 (protein, listed as Bifidobacterium pseudocatenulatum)
chain: MSEKTYPSINDLTLEEKASLTSGGDAWHLQGVEAKGIPGYMITDGPHGLRKSNSATTGEVDLNNCVPATCFPPAAGLSSSWNPELIHQVGEAMAEECIQEKVAVILGPGVNIKRNPLGGRCFEYWSEDPYLAGHEAIGIVAGVQSKGVGTSLKHFAANNQETDRLRISANISQRALREIYFPAFEHIVKEAQPWTIMCAYNCINGVHAAQDHWLLTDVLRDEWGFQGIVMSDWGADHDRVASLNAGLNLEMPPSYTDDQIVYAARDGRIQPAQLDHMAQGMIDLVNKTRAAMSIENYRFDIEAHDEVAHQAAIESMVLLKNDDAILPIAGDAKVTVIGEFARTPRYQGGGSSHITPTKMTSFLDTLTERGVDAKFAPGFTLDLEPADPALEAEAVDAAKGADVVLMFLGLPEAAESEGFDRETLDMPAKQIALLEAVAAENKNVVVVLSNGSVVTVAPWAKNAKGILESWLLGQSGGPALADVLFGKVSPSGKLAQTIPFDINDDPSTINWPGEEGHVDYGEGVFVGYRYYDTYNKAVDYPFGFGLSYATFEVSDVKAVKTGACTASVSAVVKNTSNVDAAETVQVYVAPGKADVVRPKHELKGFKKVFLKAGESAEVSFELDDRAFAYWSERFNDWHVESGEYTIEVGTSSRDIAGSAVVELDGDGKAQPLTEWSNFMEWRKDPLGSKVLEILRAEGEAGRMPVVPDNDMTRLFLDSMPINSMSVLMGADGKQIFEYMLEKYAELTK
B3: 808 (protein, listed as Microbacterium lemovicicum)
chain: MTTESTVATSDATSHLLPLLAQLTLAQKAAFVQGADFWATVPLPEIGVRSMTLSDGPAGVRGPRWDEREPSLNLPSGSALAASWDIDLAYRYGAAAASEARRKGVDVVLGPTINLHRSPLGGRHFECFSEDPELTAELGAAYVRGLQDNGVAATPKHYVANDSETDRFTVDVRVDERALRELYLAPFERAVEAGTWSVMSAYNSVDGVTMTENDLLETPLNSEWGFDGVVVSDWTAVRSLDAVAASQDLAMPGPAPAWADLVAAVEDGRVSEADLDRKVLRMLLLAERVGALEGAPGIEPAPVDGVAFTREAAVEGTVLLTNDGTLPLDAAALRSVAVIGHNALEARTQGGGSATVLPEHVVSPLEGLRTALPDAAVSYEIGAVVQEGVAELPLEQLQNTVTGEPGLRVSFFDADGLELFTEDRRSTALVWFGGDAPIAASSSVVLETVYTPAETGEIQLGFAGANPGRVSIDGVEVLAETPLIEGTDLGAAFLNPPSSTAAVRAEAGRPLRLRAEFALSSGGPLAGALSVTLGIAPETTDPDELIARAAAAAASADVAVVVVGTNSKVESEGYDRVDLDLPGRQDDLVRAVAATGTPTIVVVNAGSPVVLPWAGEVAAVVQGYFGGQEFGSAVAAVLTGAAEPGGRLPTTWPAALADVPVTDVAPQDGVLAYTEGIHIGYRAWLRADAAPAFPFGHGLGYTTWSWGAVQRDGDALDVTLANTGARAGKQVVQVYAERADSTVERPVRWLVGFATVRAEAGQTVTATIPLPARRFAHWSDGWQVEGGAFTLRAGASVADLPLTMEWSIGD
B4: 829 (protein, listed as Pseudonocardia sp.)
chain: MATVDEDLLTTLIARLDLDAKVRLLTGADFWSTPAEPAIGLRRMVLSDGPSGVRGESFDERSPSLSLPSSTALGATWDPELARRYGSTLGAEARRQHADVVLGPTINLHRTPFGGRHFEALSEDPLLTGELAAAYVEGLQAHGVAATPKHYVANDAESERFTVDNVVGERALHELYLAAFEPAVTRGGAWAVMSAYNAVNGATMSENPLLTEPLTGEWGFDGLVMSDWGAVRTTVASARAEQHLVMPGPVSTWGERLVAAVRGGEVDESVVDGKLRRLLRLAARVGALDGGPTPPPAPAPGDGATVARELAAAGSVLVRNTGELPWDASALGTVAVLGHNAALARTQGGGSATVRPAAVVAPLDGLRTALGGDRVRYRLGAQVAEGVQPFDPETVTDPVTGEPGLRAVFRAADGTALRSEHRLGASLIWMSGEIPGGAETVEVSTRWSPEPGAHRIGAAAVGHVTVSADGATVLDTEAVLTGDEGPGAAIFEAPSATAEITTDAPVDLVFRFRPSGGEAGMALFALTVGTETVVADPRAEVAAAASLAADCDVAVVVVGTNDRIESEGFDRTSLALPGHQDDLVRAVAAANPRTVVVVNSGAPVLLPWRDEVAAVLLGWFGGERFGDAVADVLLGHAEPGGRLPTTWPATGEERSVLSGRPTDGVLRYDEGVHLGHRNWLRHGETPAYPFGHGLGYTTWTLDDAVAGPWSADGVAVTVTLTNTGDRAGRQVVQAYLSRTGSDVERPARWLAGWAVVDAAPGTTTATVTVSRRAFRHRAGGVWATEPGTYELHLGFSVADTPLHATVEVVGEG
B5: 838 (protein)
chain: MSEHTYPSVKDLTLEEKASLTSGGDAWHLQGVEAKGIPGYMITDGPHGLRKSLATSTGETDLDDSVPATCFPPAAGLSSSWNPSLVRKVGEAMGEECIQEKVAVILGPGVNIKRNPLGGRCFEYWSEDPYLAGHEAVGIVEGVQSKGVGTSLKHFAVNNQETDRLRVDARVSQRALREIYLPAFEHIVKTAQPWTIMCSYNRVNGVHSAQNRWLLTDVLRDEWGFKGIVMSDWGADHDRVASVNAGLNLEMPPSGTDDEIVYAARDGRIDPAQLDRMAQGMIDLTDKARAAMSIDGYRFDVDAHDEVAHQAAVESMVLLKNEDAILPLKKDAKIAVIGEFARTPRYQGGGSSHITPTKMTSFLDTLAERGIKADFAPGFTLDLDPADSALELEAVETARDADVALLFLGLPEAAESEGFDRETLDMPAKQIELLAKVAAVNPNVAVVLSNGSVVSVAPWAGNAKGILESWLLGQAGGPALADVIFGEASPSGKLAQSIPLDINDDPSMLNWPGEEGHVDYGEGVFVGYRYYDTYDVAVDYPFGYGLSYASFEISDVHAEKTGANTASVTATVANVSDVDGAETVQVYVAPGKAEVARPSHELKGFAKVFLKAGESKTVTFDLDGRAFAYWSEKYGDWHIEAGAYGIEVGTSSRDIAATATVELEGDGKSLPLDEWSTYGEWEADPVGARVVAAVEAAGESGTLPKLPDNTMMRIFLKSMPINSMPMLMSDGGRRITAFMLDEYAKLTK
modifications: Bifidobacterium stellenboschense

The nature of one experiment: Experiment 5-1: screening of additional glucosidases for deglycosylation with purified QS-18 (0.04 mg/ml) at pH 7.5 and 30 deg C. The note with it: pH 7.5, 30 degrees C, 18 hours, LCMS/MS. The format is biochemical, Quillaja saponaria. As to the method: The 94 additional genes, together with positive control (DNA encoding SEQ ID No. 262) and negative control, were transformed, expressed, lysed and reacted in the same manner as described above for Experiment 4-1, except the reaction was incubated at 30 degrees C. for 18 hours.
Samples were analysed by LCMS/MS according to the procedure in Experiment 4-1.
Regarding B1, the “Experiment 5-1 % conv” value was found to be 54.8%.
In the case of B2, the “Experiment 5-1 % conv” value is on record as 50.7%.
On the same count and under the same terms, for B3 the value was 52.0%; for B4, 52.3%.
As to B5, the “Experiment 5-1 % conv” value was found to be 53.4%.

A further experiment in a line: Experiment 5-3: screening of additional glucosidases for deglycosylation with QS-18 in treated bark extract (80%) at pH 6 and 35 deg C. The experiment is classed as biochemical, Quillaja saponaria. The note with it: TBE 80% (QS-21 approx. 4 g/L), pH 6, 35 deg C; UV HPLC. As to the method:
Experiment 5-1 was repeated, replacing CBE with Treated Bark Extract (TBE) at pH 6. TBE was prepared from CBE by PVPP treatment and concentration, to provide TBE with a QS-21 concentration of approximately 4 g/L. TBE was adjusted to pH 6 by dropwise addition of 2M NaOH with stirring.
In the case of B1, the “Experiment 5-3 % conv” value was under 0.5%.
The same measure, in the same setting: next, B2: under 0.5%; B3: under 0.5%; B4: under 0.5%.
For B5, the “Experiment 5-3 % conv” value is under 0.5%.

A short description of another experiment: Experiment 5-2: screening of additional glucosidases for deglycosylation with QS-18 in crude bark extract (80%) at pH 6 and 35 deg C. The format is biochemical, Quillaja saponaria. The settings on record: CBE 80%, pH 6, 35 deg C, 18 hours; UV HPLC. The essentials:
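Deglycosylation of QS-18 was monitored by UV HPLC after MeCN/AcOH quench with hexanophenone. The reaction ran 18 hours at 35 deg C, shaking, combining clarified pH 6 lysate with crude bark extract neutralised to pH 6 by NaOH.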
On to B1, for which the “Experiment 5-2 % conv” value is listed as under 0.5%.
Still for that read-out and setting: for B2 the value was under 0.5%; for B3, under 0.5%; for B4, under 0.5%.
Consider B5, for which the “Experiment 5-2 % conv” value was under 0.5%.
